# Assay results reported in PMC3744425.
# Molecular target: Ubiquitin-7-amino-4-methylcoumarin (human) (UniProt P0CG48)
row,Substance,"Kapp (apparent kcat/Km) of Ub-AMC hydrolysis, far from saturating conditions [M⁻¹ s⁻¹]"
1,"TYMV PRO E759G/N760G mutant, N-terminally 6-histidine tagged (enzyme)",2060
2,"TYMV PRO I847A mutant, N-terminally 6-histidine tagged (enzyme)",215
3,"TYMV PRO I847D mutant, N-terminally 6-histidine tagged (enzyme)",14
4,"TYMV PRO L732A/L765A mutant, N-terminally 6-histidine tagged (enzyme)",2510
5,"Turnip yellow mosaic virus (TYMV) PRO domain, N-terminally 6-histidine tagged, wild type (enzyme)",2650
